Results published in publication PMC9491720 (Science Advances, 2022).

Biological target: Flag-tagged PKM2 (pyruvate kinase M2) (human, UniProt P14618-1 1-531, labeled with fluorescence (in the MST assay only))
Assay: MST

Chain of Flag-tagged PKM2 (pyruvate kinase M2) (P14618 whole entry): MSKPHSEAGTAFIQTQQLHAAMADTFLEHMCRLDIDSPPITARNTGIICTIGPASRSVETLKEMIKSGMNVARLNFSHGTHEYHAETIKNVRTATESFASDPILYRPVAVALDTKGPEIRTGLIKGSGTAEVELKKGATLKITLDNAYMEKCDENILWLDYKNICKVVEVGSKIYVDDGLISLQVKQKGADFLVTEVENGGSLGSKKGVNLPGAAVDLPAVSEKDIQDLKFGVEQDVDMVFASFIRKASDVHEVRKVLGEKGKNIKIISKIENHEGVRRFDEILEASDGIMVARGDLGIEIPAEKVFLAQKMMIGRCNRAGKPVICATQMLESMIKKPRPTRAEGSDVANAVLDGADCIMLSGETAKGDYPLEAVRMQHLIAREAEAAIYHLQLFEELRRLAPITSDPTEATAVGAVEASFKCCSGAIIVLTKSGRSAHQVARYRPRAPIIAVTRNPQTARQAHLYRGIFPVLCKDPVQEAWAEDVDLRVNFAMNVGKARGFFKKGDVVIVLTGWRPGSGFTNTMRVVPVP

Kd: 346 nM
B1: recombinant His-tagged Smad7 (natural protein)
chain: MFRTKRSALVRRLWRSRAPGGEDEEEGAGGGGGGGELRGEGATDSRAHGAGGGGPGRAGCCLGKAVRGAKGHHHPHPPAAGAGAAGGAEADLKALTHSVLKKLKERQLELLLQAVESRGGTRTACLLLPGRLDCRLGPGAPAGAQPAQPPSSYSLPLLLCKVFRWPDLRHSSEVKRLCCCESYGKINPELVCCNPHHLSRLCELESPPPPYSRYPMDFLKPTADCPDAVPSSAETGGTNYLAPGGLSDSQLLLEPGDRSHWCVVAYWEEKTRVGRLYCVQEPSLDIFYDLPQGNGFCLGQLNSDNKSQLVQKVRSKIGCGIQLTREVDGVWVYNRSSYPIFIKSATLDNPDSRTLLVHKVFPGFSIKAFDYEKAYSLQRPNDHEFMQQPWTGFTVQISFVKGWGQCYTRQFISSCPCWLEVIFNSR
